The results in this text go back to US20230167164A1 (IMMUNOWAKE, published 2023).

For assay [1], the target named is T1, human PD-1 (human, UniProt Q15116 25-167, limits assumed).
T1 construct: nivolumab is called an anti-human PD-1 antibody; also called hPD-1
Nature of the assay: affinity in PD-L1-Fc format; N/A indicates non-detectable PD-1 binding.

Assay [2] addresses T2, mouse PD-1 (mouse, UniProt Q02242 25-167, limits assumed).
T2 construct: also called mPD-1
T2 sequence (looked up): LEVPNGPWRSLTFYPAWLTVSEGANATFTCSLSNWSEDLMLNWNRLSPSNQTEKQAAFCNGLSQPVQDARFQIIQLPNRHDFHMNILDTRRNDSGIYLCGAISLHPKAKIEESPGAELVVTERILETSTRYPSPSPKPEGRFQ
The assay is described as above.

Assay [3] deals with T2, mouse PD-1. Nature of the assay: Kd column of Table 22; same value as PD-L2(WT)-Fc in Table 21.
Assay [4] has as its target human PD-1 overexpressed on HEK-Blue reporter cells (human, UniProt Q15116 25-288). Put plainly: cell-based or functional assay.
The target in assay [5] is human IL-12 receptor complex (human, UniProt P42701 24-662; Q99665 24-862). Nature of the assay: cell-based or functional assay.
Chain of human IL-12 receptor complex (Q99665 24-862, chain 2 of 2, other chains not shown): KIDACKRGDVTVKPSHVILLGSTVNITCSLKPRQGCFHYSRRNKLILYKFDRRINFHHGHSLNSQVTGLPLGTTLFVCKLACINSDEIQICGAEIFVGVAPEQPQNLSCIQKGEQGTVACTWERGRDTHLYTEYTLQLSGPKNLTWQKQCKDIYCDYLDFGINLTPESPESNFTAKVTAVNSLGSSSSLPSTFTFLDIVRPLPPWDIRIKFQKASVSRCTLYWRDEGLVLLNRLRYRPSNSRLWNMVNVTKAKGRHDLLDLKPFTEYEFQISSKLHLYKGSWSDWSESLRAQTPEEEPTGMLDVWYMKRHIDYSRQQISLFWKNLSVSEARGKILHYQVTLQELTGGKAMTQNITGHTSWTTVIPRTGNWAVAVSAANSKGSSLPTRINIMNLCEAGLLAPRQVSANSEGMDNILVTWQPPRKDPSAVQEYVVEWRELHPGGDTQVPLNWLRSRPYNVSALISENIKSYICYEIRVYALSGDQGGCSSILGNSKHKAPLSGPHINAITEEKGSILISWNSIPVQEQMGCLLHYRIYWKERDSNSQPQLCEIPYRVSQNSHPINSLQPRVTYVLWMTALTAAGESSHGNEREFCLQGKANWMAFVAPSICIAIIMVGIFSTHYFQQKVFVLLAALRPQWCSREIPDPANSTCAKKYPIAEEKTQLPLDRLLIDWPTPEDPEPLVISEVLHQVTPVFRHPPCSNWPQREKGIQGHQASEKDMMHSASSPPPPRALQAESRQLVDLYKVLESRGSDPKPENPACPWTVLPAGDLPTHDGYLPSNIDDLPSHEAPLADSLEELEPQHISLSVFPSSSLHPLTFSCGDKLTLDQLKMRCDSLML
Assay [6] concerns the target T1, human PD-1. Put plainly: method not named.
Assay [7] concerns the target T2, mouse PD-1. Nature of the assay: method not named.
In assay [8] the target is T2, mouse PD-1. Nature of the assay: Kd column of Table 22; same value as PD-L1(mut2)-Fc in Table 20.
The target in assay [9] is T2, mouse PD-1. Nature of the assay: Kd column of Table 22; same value as PD-L2(mut2)-Fc in Table 21.

T1 sequence (Q15116 25-167 limits assumed): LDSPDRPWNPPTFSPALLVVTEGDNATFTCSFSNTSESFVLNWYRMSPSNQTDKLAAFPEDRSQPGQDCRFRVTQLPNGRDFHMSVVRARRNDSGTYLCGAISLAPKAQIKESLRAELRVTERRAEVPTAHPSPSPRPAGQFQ
Chain of human PD-1 overexpressed on HEK-Blue reporter cells (Q15116 25-288): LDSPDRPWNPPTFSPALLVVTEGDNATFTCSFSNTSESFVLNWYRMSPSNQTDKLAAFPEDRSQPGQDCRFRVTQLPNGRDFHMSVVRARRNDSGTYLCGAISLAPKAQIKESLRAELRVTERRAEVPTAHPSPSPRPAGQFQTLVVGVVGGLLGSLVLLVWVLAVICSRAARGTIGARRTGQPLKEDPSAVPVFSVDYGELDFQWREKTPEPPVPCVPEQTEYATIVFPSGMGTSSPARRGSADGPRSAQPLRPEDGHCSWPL

B1: PD-L1(mut1)-Fc (Fc fusion)
chain 1: FTVTVPKDLYVVEYGSNMTIECKFPVEKQLDLAALIVYWMMEDKNIIQFVHGEEDLKVQHSSYRQRARLLKDQLSLGNAALQITDVKLQDAGVYTCLIAYKGADYKRITVKVNAPYNKINQRILVVDPVTSEHELTCQAEGYPKAEVIWTSSDHQVLSGKTTTTNSKREEKLFNVTSTLRINTTTNEIFYCTFRRLDPEENHTAELVIPELPLAHPPNERDKTHTCPPCPAPEDEGGPSVFLFPPKPKDTLMISRTPEVTCVVVDVSHEDPEVKFNWYVDGVEVHNAKTKPREEQYNSTYRVVSVLTVLHQDWLNGKEYKCKVSNKALPAPIEKTISKAKGQPREPQVYVYPPSREEMTKNQVSLTCLVKGFYPSDIAVEWESNGQPENNYKTTPPVLDEDGSFALVSKLTVDKSRWQQGNVFSCSVMHEALHNHYTQKSLSLSPGK
chain 2: FTVTVPKDLYVVEYGSNMTIECKFPVEKQLDLAALIVYWMMEDKNIIQFVHGEEDLKVQHSSYRQRARLLKDQLSLGNAALQITDVKLQDAGVYTCLIAYKGADYKRITVKVNAPYNKINQRILVVDPVTSEHELTCQAEGYPKAEVIWTSSDHQVLSGKTTTTNSKREEKLFNVTSTLRINTTTNEIFYCTFRRLDPEENHTAELVIPELPLAHPPNERDKTHTCPPCPAPEKKGGPSVFLFPPKPKDTLMISRTPEVTCVVVDVSHEDPEVKFNWYVDGVEVHNAKTKPREEQYNSTYRVVSVLTVLHQDWLNGKEYKCKVSNKALPAPIEKTISKAKGQPREPQVYVLPPSREEMTKNQVSLLCLVKGFYPSDIAVEWESNGQPENRYMTWPPVLDSDGSFFLYSKLTVDKSRWQQGNVFSCSVMHEALHNHYTQKSLSLSPGK
notes: also called E58M/R113T/M115L/S117A/G119K
On to B1, for which the binding result in the assay with human PD-1 [1] and with mouse PD-1 [2] was “no binding” in each case.

B2: IL-12(E59A/F60A)/PD-L2(WT)-Fc (Fc fusion)
chain 1: LFTVTVPKELYIIEHGSNVTLECNFDTGSHVNLGAITASLQKVENDTSPHRERATLLEEQLPLGKASFHIPQVQVRDEGQYQCIIIYGVAWDYKYLTLKVKASYRKINTHILKVPETDEVELTCQATGYPLAEVSWPNVSVPANTSHSRTPEGLYQVTSVLRLKPPPGRNFSCVFWNTHVRELTLASIDLQSQMEPRTHPTGSGIWELKKDVYVVELDWYPDAPGEMVVLTCDTPEEDGITWTLDQSSEVLGSGKTLTIQVKAAGDAGQYTCHKGGEVLSHSLLLLHKKEDGIWSTDILKDQKEPKNKTFLRCEAKNYSGRFTCWWLTTISTDLTFSVKSSRGSSDPQGVTCGAATLSAERVRGDNKEYEYSVECQEDSACPAAEESLPIEVMVDAVHKLKYENYTSSFFIRDIIKPDPPKNLQLKPLKNSRQVEVSWEYPDTWSTPHSYFSLTFCVQVQGKSKREKKDRVFTDKTSATVICRKNASISVRAQDRYYSSSWSEWASVPCSGGGGSGGGGSGGGGSGGGGSGRNLPVATPDPGMFPCLHHSQNLLRAVSNMLQKARQTLEFYPCTSEEIDHEDITKDKTSTVEACLPLELTKNESCLNSRETSFITNGSCLASRKTSFMMALCLSSIYEDLKMYQVEFKTMNAKLLMDPKRQIFLDQNMLAVIDELMQALNFNSETVPQKSSLEEPDFYKTKIKLCILLHAFRIRAVTIDRVMSYLNASDKTHTCPPCPAPEDEGGPSVFLFPPKPKDTLMISRTPEVTCVVVDVSHEDPEVKFNWYVDGVEVHNAKTKPREEQYNSTYRVVSVLTVLHQDWLNGKEYKCKVSNKALPAPIEKTISKAKGQPREPQVYVYPPSREEMTKNQVSLTCLVKGFYPSDIAVEWESNGQPENNYKTTPPVLDEDGSFALVSKLTVDKSRWQQGNVFSCSVMHEALHNHYTQKSLSLSPGK
chain 2: LFTVTVPKELYIIEHGSNVTLECNFDTGSHVNLGAITASLQKVENDTSPHRERATLLEEQLPLGKASFHIPQVQVRDEGQYQCIIIYGVAWDYKYLTLKVKASYRKINTHILKVPETDEVELTCQATGYPLAEVSWPNVSVPANTSHSRTPEGLYQVTSVLRLKPPPGRNFSCVFWNTHVRELTLASIDLQSQMEPRTHPTGSGDKTHTCPPCPAPEKKGGPSVFLFPPKPKDTLMISRTPEVTCVVVDVSHEDPEVKFNWYVDGVEVHNAKTKPREEQYNSTYRVVSVLTVLHQDWLNGKEYKCKVSNKALPAPIEKTISKAKGQPREPQVYVLPPSREEMTKNQVSLLCLVKGFYPSDIAVEWESNGQPENRYMTWPPVLDSDGSFFLYSKLTVDKSRWQQGNVFSCSVMHEALHNHYTQKSLSLSPGK
notes: also called IL-12(E59A/F60A)/PD-L2-Fc immunocytokine; construct #29
For the molecule B2, in the assay with mouse PD-1 [3], the Kd was 980 nM.

B3: IL-12(E59A/F60A)/PD-L1(mut2)-Fc (Fc fusion)
chain 1: FTVTVPKDLYVVEYGSNMTIECKFPVEKQLDLAALQVYWMMEDKNIIQFVHGEEDLKVQHSSYRQRARLLKDQLSLGNAALQITDVKLQDAGVYTCLIAYKGADYKRITVKVNAPYNKINQRILVVDPVTSEHELTCQAEGYPKAEVIWTSSDHQVLSGKTTTTNSKREEKLFNVTSTLRINTTTNEIFYCTFRRLDPEENHTAELVIPELPLAHPPNERGGGGSGGGIWELKKDVYVVELDWYPDAPGEMVVLTCDTPEEDGITWTLDQSSEVLGSGKTLTIQVKAAGDAGQYTCHKGGEVLSHSLLLLHKKEDGIWSTDILKDQKEPKNKTFLRCEAKNYSGRFTCWWLTTISTDLTFSVKSSRGSSDPQGVTCGAATLSAERVRGDNKEYEYSVECQEDSACPAAEESLPIEVMVDAVHKLKYENYTSSFFIRDIIKPDPPKNLQLKPLKNSRQVEVSWEYPDTWSTPHSYFSLTFCVQVQGKSKREKKDRVFTDKTSATVICRKNASISVRAQDRYYSSSWSEWASVPCSGGGGSGGGSGGGGSRNLPVATPDPGMFPCLHHSQNLLRAVSNMLQKARQTLEFYPCTSEEIDHEDITKDKTSTVEACLPLELTKNESCLNSRETSFITNGSCLASRKTSFMMALCLSSIYEDLKMYQVEFKTMNAKLLMDPKRQIFLDQNMLAVIDELMQALNFNSETVPQKSSLEEPDFYKTKIKLCILLHAFRIRAVTIDRVMSYLNASGGGGSGGGDKTHTCPPCPAPEDEGGPSVFLFPPKPKDTLMISRTPEVTCVVVDVSHEDPEVKFNWYVDGVEVHNAKTKPREEQYNSTYRVVSVLTVLHQDWLNGKEYKCKVSNKALPAPIEKTISKAKGQPREPQVYVYPPSREEMTKNQVSLTCLVKGFYPSDIAVEWESNGQPENNYKTTPPVLDEDGSFALVSKLTVDKSRWQQGNVFSCSVMHEALHNHYTQKSLSLSPGK
chain 2: FTVTVPKDLYVVEYGSNMTIECKFPVEKQLDLAALQVYWMMEDKNIIQFVHGEEDLKVQHSSYRQRARLLKDQLSLGNAALQITDVKLQDAGVYTCLIAYKGADYKRITVKVNAPYNKINQRILVVDPVTSEHELTCQAEGYPKAEVIWTSSDHQVLSGKTTTTNSKREEKLFNVTSTLRINTTTNEIFYCTFRRLDPEENHTAELVIPELPLAHPPNERGGGGSGGGDKTHTCPPCPAPEKKGGPSVFLFPPKPKDTLMISRTPEVTCVVVDVSHEDPEVKFNWYVDGVEVHNAKTKPREEQYNSTYRVVSVLTVLHQDWLNGKEYKCKVSNKALPAPIEKTISKAKGQPREPQVYVLPPSREEMTKNQVSLLCLVKGFYPSDIAVEWESNGQPENRYMTWPPVLDSDGSFFLYSKLTVDKSRWQQGNVFSCSVMHEALHNHYTQKSLSLSPGK
notes: also called IL-12(E59A/F60A)/PD-L1(I54Q/E58M/R113T/M115L/S117A/G119K)-Fc
Regarding B3, the “IL-12 signal transduction, % of rIL-12, HEK-IL-12-PD-1 cells” value in assay [4] amounted to 24%. Further, the “IL-12 signal transduction, % of rIL-12, HEK-IL-12 cells” value in assay [5] is less than 0.2%. Also, the equilibrium dissociation constant (Kd) with human PD-1 [6] was roughly 100 nM; with mouse PD-1 [7], roughly 100 nM; with mouse PD-1 [8] it was 120 nM.

B4: IL-12(E59A/F60A)/PD-L2(mut2)-Fc (Fc fusion)
chain 1: LFTVTVPKELYIIEHGSNVTLECNFDTGSHVNLGAITAVLQKVENDTSPHRERATLLEEQLPLGKASFHIPQVQVRDEGQYQCIIIYGVAWDYKYLTLKVKASYRKINTHILKVPETDEVELTCQATGYPLAEVSWPNVSVPANTSHSRTPEGLYQVTSVLRLKPPPGRNFSCVFWNTHVRELTLASIDLQSQMEPRTHPTGGGGSGGGIWELKKDVYVVELDWYPDAPGEMVVLTCDTPEEDGITWTLDQSSEVLGSGKTLTIQVKAAGDAGQYTCHKGGEVLSHSLLLLHKKEDGIWSTDILKDQKEPKNKTFLRCEAKNYSGRFTCWWLTTISTDLTFSVKSSRGSSDPQGVTCGAATLSAERVRGDNKEYEYSVECQEDSACPAAEESLPIEVMVDAVHKLKYENYTSSFFIRDIIKPDPPKNLQLKPLKNSRQVEVSWEYPDTWSTPHSYFSLTFCVQVQGKSKREKKDRVFTDKTSATVICRKNASISVRAQDRYYSSSWSEWASVPCSGGGGSGGGSGGGGSRNLPVATPDPGMFPCLHHSQNLLRAVSNMLQKARQTLEFYPCTSEEIDHEDITKDKTSTVEACLPLELTKNESCLNSRETSFITNGSCLASRKTSFMMALCLSSIYEDLKMYQVEFKTMNAKLLMDPKRQIFLDQNMLAVIDELMQALNFNSETVPQKSSLEEPDFYKTKIKLCILLHAFRIRAVTIDRVMSYLNASGGGGSGGGDKTHTCPPCPAPEDEGGPSVFLFPPKPKDTLMISRTPEVTCVVVDVSHEDPEVKFNWYVDGVEVHNAKTKPREEQYNSTYRVVSVLTVLHQDWLNGKEYKCKVSNKALPAPIEKTISKAKGQPREPQVYVYPPSREEMTKNQVSLTCLVKGFYPSDIAVEWESNGQPENNYKTTPPVLDEDGSFALVSKLTVDKSRWQQGNVFSCSVMHEALHNHYTQKSLSLSPGK
chain 2: LFTVTVPKELYIIEHGSNVTLECNFDTGSHVNLGAITAVLQKVENDTSPHRERATLLEEQLPLGKASFHIPQVQVRDEGQYQCIIIYGVAWDYKYLTLKVKASYRKINTHILKVPETDEVELTCQATGYPLAEVSWPNVSVPANTSHSRTPEGLYQVTSVLRLKPPPGRNFSCVFWNTHVRELTLASIDLQSQMEPRTHPTGGGGSGGGDKTHTCPPCPAPEKKGGPSVFLFPPKPKDTLMISRTPEVTCVVVDVSHEDPEVKFNWYVDGVEVHNAKTKPREEQYNSTYRVVSVLTVLHQDWLNGKEYKCKVSNKALPAPIEKTISKAKGQPREPQVYVLPPSREEMTKNQVSLLCLVKGFYPSDIAVEWESNGQPENRYMTWPPVLDSDGSFFLYSKLTVDKSRWQQGNVFSCSVMHEALHNHYTQKSLSLSPGK
notes: also called IL-12(E59A/F60A)/PD-L2(S58V)-Fc
Consider B4, for which the Kd with human PD-1 [6] was roughly 100 nM; with mouse PD-1 [7] it was roughly 100 nM; with mouse PD-1 [9], 230 nM.
